Measured values: patent US20070041999A1 (published 2007)

Biological target: the molecule itself
Assay: disassembly by dialysis, size exclusion chromatography / SEC-HPLC; self-association of capsid protein
Protocol: Dissasembly of plant produced CCMV virus particles: Purified CCMV was disassembled by dialysis against buffer A (50 mM Tris HCl pH7.5, 500 mM CaCl₂, 1 mM DTT, 0.2 mM PMSF) for 16-29 hours at 4° C. The disassembled virus was centrifuged at 14,000 rpm for 15 min at 4° C. to pellet the viral RNA. The remaining supernatant was dialyzed against buffer B (200 mM Tris HCl pH7.5, 1M NaCl, 1 mM DTT, 0.2 mM PMSF) for 2 hours at 4° C. The CCMV dissasembled into capsid protein dimers that were further purified by FPLC Superose 12 size exclusion chromatography. The diassambled CCMV was analyzed by SEC-HPLC (FIG. 8).

B1: Wild type CCMV coat protein encoded by sgRNA4 (other)
chain: STVGTGKLTRAQRRAAARKNKRNTRVVQPVIVEPIASGQGKAIKAWTGYSVSKWTASCAAAEAKVTSAITISLPNELSSERNKQLKVGRVLLWLGLLPSVSGTVKSCVTETQTTAAASFQVALAVADNSKDVVAAMYPEAFKGITLEQLTADLTIYLYSSAALTEGDVIVHLEVEHVRPTFDDSFTPVY
notes: also called CCMV CP; CCMV capsid protein
binding result: binds
